US6623738 (University of California, dated 2003)
Several values for one entry are separate records, joined by “and”; a condition that tells them apart may be missing. Identical values can stand only once.

T1: rat semaphorin receptor 1 (rSR1), full length, expressed on cells (rat, UniProt Q9QWJ9 22-922)
T1 construct: also called rat SR1; p28
T1 sequence: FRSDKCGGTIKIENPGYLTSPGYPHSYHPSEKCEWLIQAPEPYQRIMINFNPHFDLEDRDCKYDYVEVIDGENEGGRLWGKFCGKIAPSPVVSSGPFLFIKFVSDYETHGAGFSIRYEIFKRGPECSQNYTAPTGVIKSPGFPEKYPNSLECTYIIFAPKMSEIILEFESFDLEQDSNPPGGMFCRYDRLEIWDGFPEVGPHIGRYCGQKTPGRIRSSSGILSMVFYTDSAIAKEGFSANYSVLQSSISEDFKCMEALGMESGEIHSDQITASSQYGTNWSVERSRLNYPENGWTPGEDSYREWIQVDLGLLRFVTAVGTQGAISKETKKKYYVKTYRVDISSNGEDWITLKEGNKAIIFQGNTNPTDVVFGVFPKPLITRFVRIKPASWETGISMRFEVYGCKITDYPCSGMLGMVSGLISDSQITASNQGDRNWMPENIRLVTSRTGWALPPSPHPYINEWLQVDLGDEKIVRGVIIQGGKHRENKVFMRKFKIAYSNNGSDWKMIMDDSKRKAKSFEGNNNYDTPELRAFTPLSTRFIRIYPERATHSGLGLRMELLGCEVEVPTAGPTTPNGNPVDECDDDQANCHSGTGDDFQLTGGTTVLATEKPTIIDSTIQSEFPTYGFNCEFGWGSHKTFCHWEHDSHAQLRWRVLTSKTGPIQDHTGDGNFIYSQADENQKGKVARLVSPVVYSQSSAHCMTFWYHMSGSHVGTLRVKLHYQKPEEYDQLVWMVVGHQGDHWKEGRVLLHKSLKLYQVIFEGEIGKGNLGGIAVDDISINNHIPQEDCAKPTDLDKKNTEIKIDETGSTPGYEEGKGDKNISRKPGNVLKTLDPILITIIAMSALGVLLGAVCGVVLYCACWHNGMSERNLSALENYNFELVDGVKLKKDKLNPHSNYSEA

T2: mouse neuropilin-2(a0), myc-tagged, expressed in COS-7 cells (mouse, UniProt O35375 21-931)
T2 construct: also called SR2(a)0; m-npn-2
T2 sequence: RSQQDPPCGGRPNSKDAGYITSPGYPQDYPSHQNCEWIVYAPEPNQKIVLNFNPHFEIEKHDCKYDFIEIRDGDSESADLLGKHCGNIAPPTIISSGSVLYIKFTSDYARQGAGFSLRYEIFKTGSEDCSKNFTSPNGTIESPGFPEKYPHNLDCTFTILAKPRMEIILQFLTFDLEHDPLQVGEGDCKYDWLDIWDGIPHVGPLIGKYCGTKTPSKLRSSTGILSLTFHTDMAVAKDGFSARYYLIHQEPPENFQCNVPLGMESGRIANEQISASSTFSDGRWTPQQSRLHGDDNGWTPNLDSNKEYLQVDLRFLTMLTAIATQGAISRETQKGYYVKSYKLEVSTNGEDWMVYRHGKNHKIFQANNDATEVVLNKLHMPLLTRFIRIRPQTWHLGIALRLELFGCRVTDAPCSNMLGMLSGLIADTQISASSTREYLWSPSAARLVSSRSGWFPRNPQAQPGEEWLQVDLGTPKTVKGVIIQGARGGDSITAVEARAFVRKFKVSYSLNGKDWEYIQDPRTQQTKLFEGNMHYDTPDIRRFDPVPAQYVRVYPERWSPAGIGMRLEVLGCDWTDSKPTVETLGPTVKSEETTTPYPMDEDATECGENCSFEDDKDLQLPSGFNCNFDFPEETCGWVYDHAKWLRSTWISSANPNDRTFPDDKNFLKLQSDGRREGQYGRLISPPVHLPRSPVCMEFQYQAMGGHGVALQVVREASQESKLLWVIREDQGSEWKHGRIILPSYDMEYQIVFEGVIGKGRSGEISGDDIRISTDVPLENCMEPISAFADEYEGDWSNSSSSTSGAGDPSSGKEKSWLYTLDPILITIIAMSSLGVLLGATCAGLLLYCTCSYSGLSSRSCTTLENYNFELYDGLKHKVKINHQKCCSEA

T3: mouse neuropilin-2(a5), myc-tagged, expressed in COS-7 cells (mouse, UniProt O35375 21-931)
T3 construct: also called a5 isoform of neuropilin-2; SR2(a)5
T3 sequence: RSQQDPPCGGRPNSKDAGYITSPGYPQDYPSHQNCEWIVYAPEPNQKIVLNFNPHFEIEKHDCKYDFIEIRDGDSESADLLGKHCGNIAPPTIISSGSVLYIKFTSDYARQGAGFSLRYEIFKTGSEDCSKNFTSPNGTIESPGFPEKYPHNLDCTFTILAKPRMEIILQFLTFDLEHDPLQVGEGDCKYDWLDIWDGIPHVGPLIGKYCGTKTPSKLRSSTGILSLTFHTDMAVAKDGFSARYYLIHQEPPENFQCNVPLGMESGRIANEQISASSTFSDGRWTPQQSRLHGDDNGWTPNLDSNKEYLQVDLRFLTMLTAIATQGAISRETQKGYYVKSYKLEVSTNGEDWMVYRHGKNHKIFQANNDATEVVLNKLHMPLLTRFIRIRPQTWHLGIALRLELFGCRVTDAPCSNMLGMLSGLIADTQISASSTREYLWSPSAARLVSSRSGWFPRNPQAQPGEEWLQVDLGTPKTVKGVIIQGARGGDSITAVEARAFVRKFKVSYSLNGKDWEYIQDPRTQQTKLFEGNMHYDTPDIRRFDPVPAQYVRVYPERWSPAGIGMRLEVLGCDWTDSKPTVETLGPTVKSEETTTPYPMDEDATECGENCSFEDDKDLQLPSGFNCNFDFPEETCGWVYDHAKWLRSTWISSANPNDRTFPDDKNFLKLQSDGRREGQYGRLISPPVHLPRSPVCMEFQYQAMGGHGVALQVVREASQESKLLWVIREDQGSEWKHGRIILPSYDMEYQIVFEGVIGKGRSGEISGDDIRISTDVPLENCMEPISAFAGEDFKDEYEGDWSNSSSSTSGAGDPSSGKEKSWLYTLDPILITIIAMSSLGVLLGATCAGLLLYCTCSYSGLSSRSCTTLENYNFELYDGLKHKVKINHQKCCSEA

T4: mouse neuropilin-2(a22), myc-tagged, expressed in COS-7 cells (mouse, UniProt O35375 21-931)
T4 construct: also called SR2(a)22
T4 sequence: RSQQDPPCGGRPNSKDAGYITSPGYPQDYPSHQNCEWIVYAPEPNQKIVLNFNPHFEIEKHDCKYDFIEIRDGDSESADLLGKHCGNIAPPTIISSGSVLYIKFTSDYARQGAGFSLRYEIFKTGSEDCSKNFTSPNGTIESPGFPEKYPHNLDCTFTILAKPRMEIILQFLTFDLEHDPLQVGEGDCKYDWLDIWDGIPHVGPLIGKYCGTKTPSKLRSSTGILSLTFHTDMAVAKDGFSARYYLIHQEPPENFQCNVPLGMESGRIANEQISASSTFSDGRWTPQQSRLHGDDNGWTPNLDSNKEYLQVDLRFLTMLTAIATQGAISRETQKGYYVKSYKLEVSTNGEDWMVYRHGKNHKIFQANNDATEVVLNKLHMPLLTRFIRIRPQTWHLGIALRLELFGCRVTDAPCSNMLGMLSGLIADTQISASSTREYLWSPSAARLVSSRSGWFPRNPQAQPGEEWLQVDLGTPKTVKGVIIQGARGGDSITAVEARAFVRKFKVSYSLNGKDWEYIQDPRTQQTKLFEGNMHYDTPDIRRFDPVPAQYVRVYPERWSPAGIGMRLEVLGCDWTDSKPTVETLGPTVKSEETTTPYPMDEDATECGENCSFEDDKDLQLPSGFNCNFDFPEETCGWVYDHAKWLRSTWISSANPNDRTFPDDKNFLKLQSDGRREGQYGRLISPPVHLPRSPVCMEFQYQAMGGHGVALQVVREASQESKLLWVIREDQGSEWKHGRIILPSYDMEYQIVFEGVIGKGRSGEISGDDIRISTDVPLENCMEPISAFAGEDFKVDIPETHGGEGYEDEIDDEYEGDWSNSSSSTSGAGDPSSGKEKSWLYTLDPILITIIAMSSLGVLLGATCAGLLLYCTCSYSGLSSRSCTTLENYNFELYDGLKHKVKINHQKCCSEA


How the values were obtained:
[1] = target: T1, rat semaphorin receptor 1 (rSR1), full …; experiment: equilibrium binding of AP fusion to 293-EBNA cells stably expressing rat SR1, Hill fit
[2] = target: T2, mouse neuropilin-2(a0), myc-tagged, …; experiment: AP fusion binding to transfected COS cells
[3] = target: T3, mouse neuropilin-2(a5), myc-tagged, …; experiment: AP fusion binding to transfected COS cells
[4] = target: T4, mouse neuropilin-2(a22), myc-tagged, …; experiment: AP fusion binding to transfected COS cells

Kd [1] | binding result [2] | binding result [3] | binding result [4] | Binder
0.84 nM and 0.0672 µg/mL | – | – | – | AP fusion protein comprising only the C domain of SemaIII (AP-C) (ligand) IIPVEEENPDFWNREAAEALGAAKKLQPAQTAAKNLIIFLGDGMGVSTVTAARILKGQKKDKLGPEIPLAMDRFPYVALSKTYNVDKHVPDSGATATAYLCGVKGNFQTIGLSAAARFNQCNTTRGNEVISVMNRAKKAGKSVGVVTTTRVQHASPAGTYAHTVNRNWYSDADVPASARQEGCQDIATQLISNMDIDVILGGGRKYMFRMGTPDPEYPDDYSQGGTRLDGKNLVQEWLAKRQGARYVWNRTELMQASLDPSVTHLMGLFEPGDMKYEIHRDSTLDPSLMEMTEAALRLLSRNPRGFFLFVEGGRIDHGHHESRAYRALTETIMFDDAIERAGQLTSEEDTLSLVTADHSHVFSFGGYPLRGSSIFGLAPGKARDRKAYTVLLYGNGPGYVLKDGARPDVTESESGSPEYRQQSAVPLDEETHAGEDVAVFARGPQAHLVHGVQEQTFIAHVMAFAACLEPYTACDLAPPAGTTDAAHPGGFIQTLLKVTLEVIDTEHLEELLHKDDDGDGSKTKEMSNSMTPSQKVWYRDFMQLINHPNLNTMDEFCEQVWKRDRKQRRQRPGHTPGNSNKWKHLQENKK
– | no binding | no binding | no binding | AP fusion with the ectodomain of Sema VIa (ligand, UniProt O35464 19-649, looked up, extracellular domain; also called Sema VIa ectodomain; not shown: alkaline phosphatase (AP) reporter) GFPEDSEPISISHGNYTKQYPVFVGHKPGRNTTQRHRLDIQMIMIMNRTLYVAARDHIYTVDIDTSHTEEIYCSKKLTWKSRQADVDTCRMKGKHKDECHNFIKVLLKKNDDTLFVCGTNAFNPSCRNYRVDTLETFGDEFSGMARCPYDAKHANIALFADGKLYSATVTDFLAIDAVIYRSLGDSPTLRTVKHDSKWLKEPYFVQAVDYGDYIYFFFREIAVEYNTMGKVVFPRVAQVCKNDMGGSQRVLEKQWTSFLKARLNCSVPGDSHFYFNILQAVTDVIRINGRDVVLATFSTPYNSIPGSAVCAYDMLDIANVFTGRFKEQKSPDSTWTPVPDERVPKPRPGCCAGSSSLEKYATSNEFPDDTLNFIKTHPLMDEAVPSIINRPWFLRTMVRYRLTKIAVDNAAGPYQNHTVVFLGSEKGIILKFLARIGSSGFLNGSLFLEEMNVYNPEKCSYDGVEDKRIMGMQLDRASGSLYVAFSTCVIKVPLGRCERHGKCKKTCIASRDPYCGWVRESGSCAHLSPLSRLTFEQDIERGNTDGLGDCHNSFVALNGHASSLYPSTTTSDSASRDGYESRGGMLDWNDLLEAPGSTDPLGAVSSHNHQDKKGVIRESYLKSNDQLVPVT
– | no binding | no binding | no binding | AP fusion with Drosophila D-Sema II (ligand, UniProt Q24323 26-724, looked up, also called Drosophila Sema II; not shown: alkaline phosphatase (AP) reporter) DYENTWNFYYERPCCTGNDQGNNNYGKHGADHVREFNCGKLYYRTFHMNEDRDTLYVGAMDRVFRVNLQNISSSNCNRDVINLEPTRDDVVSCVSKGKSQIFDCKNHVRVIQSMDQGDRLYVCGTNAHNPKDYVIYANLTHLPRSEYVIGVGLGIAKCPYDPLDNSTAIYVENGNPGGLPGLYSGTNAEFTKADTVIFRTDLYNTSAKRLEYKFKRTLKYDSKWLDKPNFVGSFDIGEYVYFFFRETAVEYINCGKAVYSRIARVCKKDVGGKNLLAHNWATYLKARLNCSISGEFPFYFNEIQSVYQLPSDKSRFFATFTTSTNGLIGSAVCSFHINEIQAAFNGKFKEQSSSNSAWLPVLNSRVPEPRPGTCVNDTSNLPDTVLNFIRSHPLMDKAVNHEHNNPVYYKRDLVFTKLVVDKIRIDILNQEYIVYYVGTNLGRIYKIVQYYRNGESLSKLLDIFEVAPNEAIQVMEISQTRKSLYIGTDHRIKQIDLAMCNRRYDNCFRCVRDPYCGWDKEANTCRPYELDLLQDVANETSDICDSSVLKKKIVVTYGQSVHLGCFVKIPEVLKNEQVTWYHHSKDKGRYEIRYSPTKYIETTERGLVVVSVNEADGGRYDCHLGGSLLCSYNITVDAHRCTPPNKSNDYQKIYSDWCHEFEKYKTAMKSWEKKQAQCSTRQNFSSNQHPNEIFRKPNV
